# Laboratory results published in article PMC5923229 (2018).
# Target: the molecule itself
protein,measurement,value
"H46R/H48Q SOD1 with ebsulphur conjugated at Cys111 (enzyme, ebsulphur conjugated at Cys111) not shown",Kd,0.676 µM
